Measurements from publication PMC4873633, “Dietary salt regulates uroguanylin expression and signaling activity in the kidney, but not in the intestine” (Physiological Reports, 2016).
Bridge positions count the residues as written; N and C are the ends. Peptide text beside a SMILES is read from it.

What was measured:
[1] = molecular target: T1, GC-C (Ugn receptor) in T84 cell membranes (Homo sapiens, UniProt P25092); assay: Competitive Ugn binding assay (125I-Y-Ugn, T84 cell membranes); settings: pH 4.5, 1 h at 25°C; for Ki: displacement of 1 nmol/L 125I-Y-Ugn, T84 cell membranes, triplicate, rat Ugn n = 8 (R2 0.9985), rat Gn n = 3 (R2 0.9587), rat proUgn n = 3 (R2 0.9677)
T1 construct: plasma membranes derived from the T84 cell line, which abundantly expresses GC‐C; endogenous in cells; host or cells: T84 cell membranes
T1 sequence (P25092 24-1073): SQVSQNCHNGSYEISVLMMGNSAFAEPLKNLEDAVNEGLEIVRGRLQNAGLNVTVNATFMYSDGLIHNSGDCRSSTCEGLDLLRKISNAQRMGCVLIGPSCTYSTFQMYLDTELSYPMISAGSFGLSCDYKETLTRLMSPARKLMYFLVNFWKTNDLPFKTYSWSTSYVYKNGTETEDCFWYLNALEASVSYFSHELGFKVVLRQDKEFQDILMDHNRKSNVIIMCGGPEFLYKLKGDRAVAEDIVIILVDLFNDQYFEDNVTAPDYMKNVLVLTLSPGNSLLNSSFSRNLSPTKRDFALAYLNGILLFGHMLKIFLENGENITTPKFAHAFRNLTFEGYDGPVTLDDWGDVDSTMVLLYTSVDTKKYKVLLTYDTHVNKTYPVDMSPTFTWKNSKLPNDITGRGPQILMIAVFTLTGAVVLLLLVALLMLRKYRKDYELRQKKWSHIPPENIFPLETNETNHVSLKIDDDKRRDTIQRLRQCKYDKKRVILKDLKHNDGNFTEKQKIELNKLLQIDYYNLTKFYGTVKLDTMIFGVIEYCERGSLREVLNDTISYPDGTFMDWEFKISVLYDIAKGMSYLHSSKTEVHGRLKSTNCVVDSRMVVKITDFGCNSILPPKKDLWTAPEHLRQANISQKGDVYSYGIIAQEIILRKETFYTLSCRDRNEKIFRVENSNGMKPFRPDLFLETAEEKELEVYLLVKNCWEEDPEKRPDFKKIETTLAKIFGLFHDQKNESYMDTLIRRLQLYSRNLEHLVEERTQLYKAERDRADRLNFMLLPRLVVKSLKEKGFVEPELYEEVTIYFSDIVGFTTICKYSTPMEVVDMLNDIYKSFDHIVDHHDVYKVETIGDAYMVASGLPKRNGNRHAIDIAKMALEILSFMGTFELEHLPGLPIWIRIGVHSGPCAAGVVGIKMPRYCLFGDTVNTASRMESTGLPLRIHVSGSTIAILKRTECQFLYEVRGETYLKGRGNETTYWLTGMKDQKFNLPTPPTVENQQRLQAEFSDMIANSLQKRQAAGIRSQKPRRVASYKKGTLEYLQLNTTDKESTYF
Procedure: Urine samples were first dialyzed against deionized H2O, using SpectraPor® 500‐M.W. cutoff dialysis membrane (Spectrum Laboratories Inc., Rancho Domingo, CA), then dried (Savant SpeedVac, Thermo Electron Corporation, Waltham, MA) and re‐dissolved in 100 μL of assay buffer [1 nmol/L ^125I‐Y‐Ugn in NaHCO3–free HBSS supplemented with 20 mmol/L sodium citrate and 0.75% bovine serum albumin (Sigma, St. Louis, Mo, USA)]. The pH was individually adjusted to 4.5 with NaOH or HCl using a miniaturized glass microelectrode (Microelectrodes Inc., Bedford, NH). Prepared samples were incubated in triplicate for 1 h at 25°C in polypropylene tubes with 20 μL of T84 cell membranes (10–20 μg protein). Samples were then diluted in 1 mL of ice‐cold rinse buffer, rapidly filtered through Whatman GF/C glass microfiber filters presoaked in distilled water, and quickly rinsed twice with 5 mL of ice‐cold rinse buffer (50 mmol/L Tris‐HCl at pH 7.0). Bound radioligand (retained by the filter) was quantified with a gamma counter (Packard Cobra, PerkinElmer Life and Analytical Sciences Inc., Waltham, MA). Ugn concentrations in sample solutions were calculated by interpolation in a standard curve obtained from a dilution series of synthetic rat Ugn incubated and analyzed in parallel with the unknowns. Non‐specific binding was determined by including 10^−5 mol/L unlabeled Y‐Ugn in place of Ugn standards or unknowns.
All data were plotted as mean ± SEM (or, in the case of n = 2, as mean ± range). Paired t‐tests were used for comparison of Ugn excretion, water consumption, and food consumption. GraphPad Prism 5.0 (LaJolla, CA) was used for analysis of binding data, with formulas derived from the Cheng‐Prusoff equation: cpm bound = NSB + [(B max − NSB)/1 + 10∧[log10(competitor concentration) − log10(IC50)]}], where NSB = nonspecific binding (in the presence of saturating competitor) and B max = maximal binding (in the absence of competitor). […]
Because GC‐C, the Ugn receptor (Schulz et al. 1990), is activated at the apical membranes of the cells that form the renal tubules (White et al. 1989; Hodson et al. 2006; Santos‐Neto et al. 2006), we can evaluate renal Ugn signaling (the presence of Ugn within the tubule lumen) by measuring the rate at which Ugn is excreted in urine (UUgnV). However, the conventional Ugn bioassay, which measures levels of the peptide by quantifying its stimulatory effect on ligand‐activated cGMP synthesis (Carrithers et al. 1999, 2000a), is compromised by high levels of cGMP that are naturally present in urine. […]
It can quantify Ugn in the picomolar range (Fig. 2A, black circles), allowing us to perform triplicate measurements of Ugn in rat urine samples as small as 20 μL. […]

[2] = Tissue (vascular) ligation studies, plasma proUgn; assay type: in vivo, rat
Procedure: Rats were anesthetized (sodium pentobarbital, 60 mg/kg, ip) and prepared for clearance experiments as previously described (Moss et al. 2010). They received an initial infusion of isotonic saline (6% of body weight), followed by an infusion of 10% mannitol in 0.9% saline at 100 μL/min containing FITC‐labeled inulin (400 μg/mL, Sigma Chemical Co. St Louis, MO). For renal ligations, 5.0 silk thread ligatures were placed loosely around right and left renal arteries, and tightened after baseline data had been collected. For intestinal ligations, the bowels were exteriorized and wrapped in saline‐soaked gauze. […] Blood was sampled every 40 min from the femoral artery.
ProUgn concentrations in plasma and tissues were measured by quantitative western blotting, as described previously (Moss et al. 2008). Samples were loaded on 4–12% polyacrylamide gels (Invitrogen Corp., Carlsbad, CA), and a standard curve was constructed with known amounts of recombinant rat proUgn (Ironwood Pharmaceuticals, Cambridge, MA). Gels were blotted to nitrocellulose and probed with primary antibody 6910 (Moss et al. 2008; Qian et al. 2008) and an IR dye‐coupled secondary antibody. Imaging and quantification were performed with an Odyssey System (LI‐COR Biosciences, Lincoln, NE). Values were corrected for recovery, as determined in parallel control assays with known amounts of recombinant rat proUgn.
Previous surveys have identified only two organs (intestine and kidney) that contain levels of proUgn polypeptide sufficient to generate the relatively large circulating pool of proUgn (Moss et al. 2008; Qian et al. 2008). To determine the extent to which each of these organs contributes to the plasma pool, we ligated either the splanchnic or the renal blood supply, and measured the effects of each ligation on circulating proUgn levels. […] For the renal ligations, we also infused each animal with inulin (a reference standard used to assess glomerular filtration rates), and measured plasma inulin at each time point (Fig. 5A, left panel, white symbols). […]

[3] = intravascular infusion, rodents; ref none printed in abstract; cited from earlier work
Description: Abstract The peptide uroguanylin (Ugn) is expressed at significant levels only in intestine and kidney, and is stored in both tissues primarily (perhaps exclusively) as intact prouroguanylin (proUgn). […] In conjunction with previous studies, this observation critically strengthens the contention that Ugn is an authentic endocrine agent as follows: (1) Ablation of the Ugn gene leads to hypertension (Lorenz et al. 2003; Elitsur et al. 2006), an appropriate phenotype for an animal that lacks an endocrine mechanism involved in electrolyte homeostasis.

[4] = cited from earlier work
Description: To investigate this in a statistically reliable manner, we obtained single plasma samples from a larger number of individual animals at a specific time of day (3 AM) under each dietary condition. […] Recent speculation has focused on proUgn, rather than Ugn, as the endocrine mediator of this putative signaling axis, because (1) proUgn is by far the most abundant molecular species stored in tissues and circulating in plasma (Moss et al. 2008), and (2) when isotopically labeled recombinant p ...

CC[C@H](C)[C@@H]1NC(=O)[C@H](CCC(=O)O)NC(=O)[C@@H](NC(=O)[C@@H](NC(=O)[C@H](CC(N)=O)NC(=O)[C@@H]2CCCN2)[C@@H](C)O)CSSC[C@@H]2NC(=O)[C@H](C)NC(=O)[C@H](C)NC(=O)[C@H](Cc3ccc(O)cc3)NC(=O)[C@H](C)NC(=O)[C@H](CSSC[C@@H](C(=O)O)NC(=O)CNC(=O)[C@H]([C@@H](C)O)NC2=O)NC1=O [Gn, guanylin] (H-PNTCEICAYAACTGC-OH; disulfide 4-12, 7-15)
Ki [1]: 170 nM

CC[C@H](C)[C@@H]1NC(=O)[C@@H]2CSSC[C@@H](C(=O)O)NC(=O)CNC(=O)[C@H]([C@@H](C)O)NC(=O)[C@H](CSSC[C@H](NC(=O)[C@H](CCC(=O)O)NC(=O)[C@H](CC(=O)O)NC(=O)[C@@H](N)[C@@H](C)O)C(=O)N[C@@H](CCC(=O)O)C(=O)N[C@@H](CC(C)C)C(=O)N2)NC(=O)[C@H](C)NC(=O)[C@H](C(C)C)NC(=O)[C@H](CC(N)=O)NC1=O [Ugn, uroguanylin] (H-TDECELCINVACTGC-OH; disulfide 4-12, 7-15)
Ki [1]: 1.04 nM

^125I‐Y‐Ugn: N‐tyrosyl rat Ugn (Y‐Ugn, Bachem Inc.) iodinated as previously described; radioligand (YTDECELCINVACTGC; 125I-iodinated on the added N-terminal Tyr; two disulfides (Cys1-Cys3 and Cys2-Cys4 of the uroguanylin peptide, by convention); The 15-residue C-terminal peptide limits are by convention; check residu)
Kd ([1]; T84 cell membranes (10–20 μg protein), filtration, gamma counter, R2 0.9659, n = 3): 1.5 nM

B1: prouroguanylin (protein, UniProt P70668 22-106, looked up)
pro-form: VYIKYHGFQVQLESVKKLNELEEKQMSDPQQQKSGLLPDVCYNPALPLDLQPVCASQEAASTFKALRTIATDECELCINVACTGC
modifications: pro-form
notes: Recombinant rat proUgn, Ironwood Pharmaceuticals; also endogenous propeptide in plasma
Plasma proUgn after renal artery ligation ([2]; endogenous, anesthetized rats, renal artery ligation): rose rapidly
Plasma proUgn after splanchnic ligation ([2]; endogenous, anesthetized rats, splanchnic ligation): fell to barely detectable levels
Postligation rate of rise of plasma proUgn relative to inulin ([2]; renal artery ligation, FITC-inulin infused, percentage basis): nearly identical to that of inulin
Natriuretic response [3]: natriuretic responses in rodents
Ki [1]: 8900 nM
Time for appearance of nearly all recovered Ugn in urine after proUgn ([4]; intravascular bolus of exogenous proUgn, ref Moss et al. 2010): 30 to 60 min
Renal filtration and conversion ([4]; isotopically labeled recombinant proUgn infused intravascularly, ref Qian et al. 2008): readily filtered from plasma by the kidney, and converted within the kidney to Ugn
